The values below come from patent US20260034234A1 (AGENSYS, published 2026).

The term EC50 (read off the curve) denotes the midpoint of the concentration-response curve. The Kd is the equilibrium constant for the complex coming apart. As a reminder, the koff is the rate constant with which the complex falls apart. A word on the kon: it is the second-order rate constant of association. By EC50 is commonly meant the concentration that produces a half-maximal response.

Test [1] concerns the target T1, 191P4D12 (human, wild type, on cells) (human, UniProt Q96NY8 32-510).
T1 construct: 510 amino acid ORF expressed on PC3, RAT/Rat1(E) cells and present in cancer cell lines and tumor specimens; also called human 191P4D12; wild-type 191P4D12
T1 sequence: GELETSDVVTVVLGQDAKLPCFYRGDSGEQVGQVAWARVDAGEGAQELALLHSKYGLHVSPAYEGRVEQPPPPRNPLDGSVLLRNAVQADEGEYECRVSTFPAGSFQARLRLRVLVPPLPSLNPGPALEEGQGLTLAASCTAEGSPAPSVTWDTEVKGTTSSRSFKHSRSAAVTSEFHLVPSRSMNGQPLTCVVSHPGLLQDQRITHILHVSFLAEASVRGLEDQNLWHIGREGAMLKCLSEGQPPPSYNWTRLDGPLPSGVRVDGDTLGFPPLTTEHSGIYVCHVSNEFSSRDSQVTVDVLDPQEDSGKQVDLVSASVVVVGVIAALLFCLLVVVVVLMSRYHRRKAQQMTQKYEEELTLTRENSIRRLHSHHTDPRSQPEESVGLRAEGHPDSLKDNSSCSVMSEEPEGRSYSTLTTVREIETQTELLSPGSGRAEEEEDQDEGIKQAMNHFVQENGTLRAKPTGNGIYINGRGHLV
Kind of test: FACS titration on PC3 cells expressing 191P4D12.

Test [2] deals with T1, 191P4D12 (human, wild type, on cells). Kind of test: FACS titration of Ha22-2(2,4)6.1 on PC3 cells expressing 191P4D12.
For test [3], the target named is T2, 191P4D12 (aa 1-31, 147-510), C1C2, Rat1(E) expressing line (human, UniProt Q96NY8 1-510).
T2 construct: Deletion construct on the surface of Rat1(E) cells; also called C1C2 domain expressing cells
T2 sequence: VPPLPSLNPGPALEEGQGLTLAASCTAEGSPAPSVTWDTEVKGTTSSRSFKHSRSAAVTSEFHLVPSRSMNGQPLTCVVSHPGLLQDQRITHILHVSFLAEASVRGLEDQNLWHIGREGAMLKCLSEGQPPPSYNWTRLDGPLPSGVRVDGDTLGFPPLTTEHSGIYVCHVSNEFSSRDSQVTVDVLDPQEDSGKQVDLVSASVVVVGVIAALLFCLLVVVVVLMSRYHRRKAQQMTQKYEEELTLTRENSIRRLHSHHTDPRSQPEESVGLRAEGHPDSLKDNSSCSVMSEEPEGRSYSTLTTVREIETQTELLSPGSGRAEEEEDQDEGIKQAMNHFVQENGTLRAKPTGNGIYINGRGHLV
Kind of test: FACS on Rat1(E) cells expressing the C1C2 construct [Continued].

For test [4], the target named is T3, purified recombinant 191P4D12 (ECD amino acids 1-348) (human, UniProt Q96NY8 32-348).
T3 construct: Range as printed
T3 sequence: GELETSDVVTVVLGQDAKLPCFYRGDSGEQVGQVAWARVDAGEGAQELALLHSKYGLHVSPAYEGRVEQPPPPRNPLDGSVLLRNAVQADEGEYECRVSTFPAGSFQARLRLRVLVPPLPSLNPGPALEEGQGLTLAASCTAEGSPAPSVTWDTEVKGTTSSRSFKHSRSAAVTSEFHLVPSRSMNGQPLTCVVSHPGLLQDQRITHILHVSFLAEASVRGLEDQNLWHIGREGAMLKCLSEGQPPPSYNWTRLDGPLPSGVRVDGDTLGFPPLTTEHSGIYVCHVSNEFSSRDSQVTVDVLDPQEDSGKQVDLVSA
The test can be described thus: SPR (Biacore), antibody captured by anti-human Fc, 191P4D12 ECD as analyte. On the procedure:
The affinity of Ha22-2(2,4)6.1 MAb and Ha22-2(2,4)6.1vcMMAE to purified recombinant 191P4D12 (ECD amino acids 1-348) was performed by Surface Plasmon Resonance (SPR) (BIAcore). Briefly, goat-anti-human Fcγ polyclonal Abs (Jackson Immuno Research Labs, Inc.) were covalently immobilized on the surface of a CM5 sensor chip (Biacore). Purified Ha22-2(2,4)6.1 MAb or Ha22-2(2,4)6.1vcMMAE were then captured on the surface of said chip. On average, approximately 300 RUs of test Ha22-2(2,4)6.1 MAb or Ha22-2(2,4)6.1vcMMAE was captured in every cycle. Subsequently, a series of five (5) to six (6) dilutions of recombinant 191P4D12 (ECD amino acids 1-348) ranging from 1 nM to 100 nM was injected over such surface to generate binding curves (sensograms) that were processed and globally fit to a 1:1 interaction model using BIAevaluation 3.2 and CLAMP software (Myszka and Morton, 1998) (FIG. 22). Table V summarizes association and dissociation rate constants as well as affinities of Ha22-2(2,4)6.1 MAb and Ha22-2(2,4)6.1 vcMMAE to recombinant 191P4D12 (ECD amino acids 1-348).
(SPR reads the build-up and loss of mass on a sensor chip optically.)

Test [5] concerns the target T1, 191P4D12 (human, wild type, on cells). Kind of test: FACS on PC3-191P4D12 cells. The text has this:
The 191P4D12 protein of human, cynomolgus, rat and murine origin was overexpressed recombinantly in a PC3 cell line to determine cross-reactivity of Ha22-2(2,4)6.1 to these orthologs. It was shown that Ha22-2(2,4)6.1 strongly cross-reacts with cynomolgus and rat orthologs of 191P4D12 (FIG. 23).

Test [6] deals with Murine ortholog of 191P4D12, N90S, I75A double mutant (on PC3 cells) (mouse) (UniProt Q8R007). Kind of test: FACS titration of Ha22-2(2,4)6.1 on PC3 cells expressing mouse 191P4D12 I75A,N90S.

B1: Ha22-2(2,4)6.1 MAb (antibody, human IgG1, kappa, V domains shown)
VH: EVQLVESGGGLVQPGGSLRLSCAASGFTFSSYNMNWVRQAPGKGLEWVSYISSSSSTIYYADSVKGRFTISRDNAKNSLSLQMNSLRDEDTAVYYCARAYYYGMDVWGQGTTVTVSS
VL: DIQMTQSPSSVSASVGDRVTITCRASQGISGWLAWYQQKPGKAPKFLIYAASTLQSGVPSRFSGSGSGTDFTLTISSLQPEDFATYYCQQANSFPPTFGGGTKVEIKR
notes: Fully human IgG1 kappa from XenoMouse; Used biotinylated in the Western blot; also called 191P4D12 MAb Ha22-2(2,4)6.1; Ha22-(2,4)6.1 MAb
For B1, the “EC50 (read off the curve)” value in test [1] was around 0.4 nM. In addition, in test [2], the “EC50 (read off the curve)” value was around 0.6 nM. Besides, in test [3], the binding result is “no binding”. In addition, in test [4], the Kd is 16 nM, the koff turned out to be 0.0058 s⁻¹ and the kon was determined as 380000 M⁻¹ s⁻¹. The molecule also returned an EC50 in test [5] of 0.28 nM. Besides, the EC50 (read off the curve) in test [6] worked out at 0.5 nM.
